Source: the supplement of paper PMC7125110
± gives the standard error. For some assays here: Fewer inactive variants are shown than the library holds.

B1: glmS ribozyme (parent)
chain: AUAAAAGCGCCAGAACUACAGAAAUGUAGUUGACGAGGAGGAGGUUUAUCGAAUUUUCGGCGGAUGCCUCCAAA

Assays:
Settings in all cases: with glucosamine-6-phosphate
glucosamine-6-phosphate [1] = variants of: B1; assay: kcat; higher = faster cleavage; RNA array
How it was run: (§1)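 Glucosamine-6-phosphate (40 μM to 10 mM) in HEPES/KCl/Mg(OAc)2 buffer was flowed over sequenced MiSeq chips, and tiles were imaged over ~14 h. Barcoded ribozyme variants there had been transcribed in situ by E. coli RNA polymerase and were tracked through a hybridised Cy3 probe at 37 °C. One- or two-exponential decay fits to per-tile medians, normalised to baseline and to non-cleaving reference variants, gave kobs. kcat and KM came from weighted Michaelis–Menten fits across concentrations.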

glucosamine-6-phosphate [2] = variants of: B1; assay: KM; higher = weaker cofactor use; RNA array
How it was run: as §1

glucosamine-6-phosphate [3] = variants of: B1; assay: self-cleavage kobs at 40 uM GlcN6P; higher = faster cleavage; RNA array
How it was run: as §1

glucosamine-6-phosphate [4] = variants of: B1; assay: self-cleavage kobs at 160 uM GlcN6P; higher = faster cleavage; RNA array
How it was run: as §1

glucosamine-6-phosphate [5] = variants of: B1; assay: self-cleavage kobs at 640 uM GlcN6P; higher = faster cleavage; RNA array
How it was run: as §1

glucosamine-6-phosphate [6] = variants of: B1; assay: self-cleavage kobs at 2500 uM GlcN6P; higher = faster cleavage; RNA array
How it was run: as §1

glucosamine-6-phosphate [7] = variants of: B1; assay: self-cleavage kobs at 10000 uM GlcN6P; higher = faster cleavage; RNA array
How it was run: as §1

Variant | kcat (glucosamine-6-phosphate [1]) | KM (glucosamine-6-phosphate [2]) | self-cleavage kobs at 40 uM GlcN6P (glucosamine-6-phosphate [3]) | self-cleavage kobs at 160 uM GlcN6P (glucosamine-6-phosphate [4]) | self-cleavage kobs at 640 uM GlcN6P (glucosamine-6-phosphate [5]) | self-cleavage kobs at 2500 uM GlcN6P (glucosamine-6-phosphate [6]) | self-cleavage kobs at 10000 uM GlcN6P (glucosamine-6-phosphate [7])
C16U G41U | 0.00145 ± 0.00031 s⁻¹ | 599 ± 170 µM | 9.78e-05 ± 8.3e-06 s⁻¹ | 0.000229 ± 4.6e-05 s⁻¹ | 0.000727 ± 0.00014 s⁻¹ | 0.00155 ± 0.00029 s⁻¹ | 0.00126 ± 0.00027 s⁻¹
A39G U55A | 0.0158 ± 0.0027 s⁻¹ | 399 ± 110 µM | 0.00131 ± 0.00023 s⁻¹ | 0.00551 ± 0.0011 s⁻¹ | 0.0115 ± 0.0025 s⁻¹ | 0.0107 ± 0.0029 s⁻¹ | 0.017 ± 0.0039 s⁻¹
G29U G32C G43U A53U | 1.74e-05 ± 3.6e-06 s⁻¹ | 9610 ± 3900 µM | < 1e-05 s⁻¹ | – | – | – | –
A14U U49G | 0.000127 ± 2.5e-06 s⁻¹ | 3130 ± 200 µM | – | – | 2.09e-05 ± 1e-05 s⁻¹ | 5.86e-05 ± 2.3e-05 s⁻¹ | 9.65e-05 ± 9.5e-06 s⁻¹
U47C C58G | 6.37e-05 ± 7.3e-07 s⁻¹ | 2170 ± 92 µM | – | – | – | 3.41e-05 ± 1.1e-05 s⁻¹ | 5.23e-05 ± 7.5e-06 s⁻¹
U55G G66C | 0.000625 ± 0.00013 s⁻¹ | – | – | – | 0.000216 ± 4.5e-05 s⁻¹ | 0.000325 ± 7e-05 s⁻¹ | 0.000624 ± 0.0001 s⁻¹
U45G U54G | 0.0116 ± 0.0048 s⁻¹ | – | 0.000213 ± 3.6e-05 s⁻¹ | 0.000252 ± 9.5e-05 s⁻¹ | 0.00187 ± 0.00046 s⁻¹ | 0.00436 ± 0.0015 s⁻¹ | 0.0084 ± 0.0012 s⁻¹
A12U C58G | 0.0011 ± 0.00023 s⁻¹ | 6470 ± 2000 µM | – | 2.07e-05 ± 6e-06 s⁻¹ | 0.000109 ± 1.2e-05 s⁻¹ | 0.000287 ± 3e-05 s⁻¹ | 0.000677 ± 6.4e-05 s⁻¹
A36U C61A | < 1e-05 s⁻¹ | – | < 1e-05 s⁻¹ | – | – | – | < 1e-05 s⁻¹
A15U U30A | 0.0245 ± 0.006 s⁻¹ | 377 ± 130 µM | 0.00246 ± 0.0004 s⁻¹ | – | 0.0102 ± 0.0044 s⁻¹ | – | 0.0272 ± 0.0062 s⁻¹
U31C G59A | 1.58e-05 ± 4.5e-06 s⁻¹ | – | – | – | – | – | –
U65G C71G | 0.001 ± 0.00022 s⁻¹ | 3670 ± 1100 µM | 2.64e-05 ± 9.6e-06 s⁻¹ | 4.2e-05 ± 1e-05 s⁻¹ | 0.000145 ± 1.5e-05 s⁻¹ | 0.000413 ± 4.9e-05 s⁻¹ | 0.000734 ± 0.00013 s⁻¹
U31C U56C | 0.00169 ± 0.00055 s⁻¹ | 2910 ± 1200 µM | – | 9.03e-05 ± 1.1e-05 s⁻¹ | 0.000331 ± 5.8e-05 s⁻¹ | 0.000644 ± 0.00011 s⁻¹ | 0.00171 ± 0.00034 s⁻¹
U31G U56C | 0.000772 ± 3.5e-05 s⁻¹ | 2210 ± 180 µM | – | 4.9e-05 ± 1.7e-05 s⁻¹ | 0.000179 ± 2.9e-05 s⁻¹ | 0.000413 ± 0.00012 s⁻¹ | 0.000628 ± 9.2e-05 s⁻¹
A14U A64G | 0.00805 ± 0.003 s⁻¹ | 2740 ± 1300 µM | 0.000177 ± 2.5e-05 s⁻¹ | 0.000391 ± 4.2e-05 s⁻¹ | 0.00143 ± 0.00016 s⁻¹ | 0.00635 ± 0.00079 s⁻¹ | 0.00568 ± 0.00075 s⁻¹
